Results on four molecules are retold here after US20050089926A1, “Ligand sensing fluorescent acetylcholinesterase for detection of organophosphate activity” (priority 2002, published 2005).

“And” between values parts separate entries of the source, which are not always exact repeats. Equal values may be shown once. Read-outs that look alike come from different tables or passages of the source.

For one data set, the system named is mouse AChE. The data set is described as follows: TFK+ inhibition, association rate from residual enzyme activity. Format: biochemical. Conditions: for TFK+ kon: unlabeled enzyme, from measurements of enzyme activity. The method, then: Trifluoroacetophenone Inhibition—Picomolar amounts of enzyme in 0.01% bovine serum albumin in 0.1 M sodium phosphate buffer, pH 7.0, were reacted with TFK^+ in the absence of substrate. Inhibition was monitored by measuring residual enzyme activity by removal of aliquots during the course of the reaction. Bimolecular rate constants of inhibition were determined by nonlinear fit of the data (28). ΔF=ΔFmax(Et+It+Kd−/(Et+It+Kd)^2−4 EtIt∫^0.5)(2Et)^−1 (Eq. 1)
(§1) TFK^+ binding to cysteine-substituted enzymes, both free and modified with acrylodan, was also examined (Table II). For E81C and E84C, the association rate constants (kon) for TFK^+ were obtained from measurements of enzyme activity. […] For acrylodan-labeled mutants, kon was measured from the time-dependent decrease of fluorescence signal (FIG. 3).

For data set [1], the system named is wild type and mutant mouse AChEs. Nature of the data set: Acetylthiocholine hydrolysis kinetics (Ellman method). The following applies: means ± S.D. Format: biochemical. The method, then:
Assay of Catalytic Activity—The spectrophotometric method of Ellman was used (25), and kinetic constants for acetylthiocholine hydrolysis were determined by fitting the observed rates as described (26). Titration of active sites with known concentrations of the irreversible phosphorylating agent, MEPQ, was accomplished by the method of Levy and Ashani (27).

For data set [2], the target named is T1, acrylodan-labeled mouse AChE mutants (Mus musculus, UniProt P21836, E115C).
T1 construct: made in house; host or cells: HEK293
The following applies: edrophonium, tacrine or huperzine bound.

Data set [3] has as its target T2, acrylodan-labeled E81C and E84C (Mus musculus, UniProt P21836, E115C).
T2 construct: made in house; host or cells: HEK293
Format: binding. Conditions: acrylodan-conjugated E84C. The method, then:
as §1

The subject of data set [4] is E81C and E84C AChEs. The data set is described as follows: BW284c51 binding, stopped-flow tryptophan fluorescence quenching (koff/kon). Also on record: species or system mouse. The following applies: unlabeled mutant. On the procedure: (§2) Association and dissociation rate constants of edrophonium and […] with E81C and E84C AChEs were determined from changes in the tryptophan fluorescence using a stopped-flow spectrophotometer as described previously (29). Time-dependent decreases in tryptophan fluorescence were observed upon excitation at 276 nm by means of a 305 nm emission cut-off filter.

Data set [5] deals with E81C and E84C AChEs. Nature of the data set: Edrophonium binding, stopped-flow tryptophan fluorescence quenching (koff/kon). More on the design: species or system mouse. Conditions: unlabeled mutant. The method, then:
as §2

Data set [6] concerns wild type and mutant mouse AChEs. The following applies: data from Boyd et al. 2000, cited from earlier work; for Km / kcat: acetylthiocholine hydrolysis; for b: relative catalytic turnover of the ternary complex; for KSS: substrate inhibition or activation constant.

B1: E84C (protein, UniProt P21836 32-614, looked up, variant E84C)
Acetylcholinesterase: EGREDPQLLVRVRGGQLRGIRLKAPGGPVSAFLGIPFAEPPVGSRRFMPPEPKRPWSGVLDATTFQNVCYQYVDTLYPGFEGTCMWNPNRELSEDCLYLNVWTPYPRPASPTPVLIWIYGGGFYSGAASLDVYDGRFLAQVEGAVLVSMNYRVGTFGFLALPGSREAPGNVGLLDQRLALQWVQENIAAFGGDPMSVTLFGESAGAASVGMHILSLPSRSLFHRAVLQSGTPNGPWATVSAGEARRRATLLARLVGCPPGGAGGNDTELIACLRTRPAQDLVDHEWHVLPQESIFRFSFVPVVDGDFLSDTPEALINTGDFQDLQVLVGVVKDEGSYFLVYGVPGFSKDNESLISRAQFLAGVRIGVPQASDLAAEAVVLHYTDWLHPEDPTHLRDAMSAVVGDHNVVCPVAQLAGRLAAQGARVYAYIFEHRASTLTWPLWMGVPHGYEIEFIFGLPLDPSLNYTTEERIFAQRLMKYWTNFARTGDPNDPRDSKSPQWPPYTTAAQQYVSLNLKPLEVRRGLRAQTCAFWNRFLPKLLSATDTLDEAERQWKAEFHRWSSYMVHWKNQFDHYSKQERCSDL
Turning to B1, the “TFK+ kon” value in the data set on mouse AChE is on record as 93 10^9M^−1min^−1. In addition, in the data set on mouse AChE (unlabeled mutant), the “TFK+ kon ratio to wild type (head is formula MATH:1)” value is on record as 1.6. Moreover, in data set [1] (acetylthiocholine hydrolysis), the Michaelis-Menten constant (Km) came out at 190 ± 9 µM and the kcat was 1.9 ± 0.4 10^5/min. This molecule also had a b in data set [1] (relative catalytic turnover of the ternary complex) of 0.2 ± 0.05. In data set [1] (substrate inhibition or activation constant), this molecule came in with a KSS of 26 ± 2 mM. In addition, the “bathochromic shift upon inhibitor binding” value in data set [2] worked out at 33 nm. Further, the “reduction of kon of TFK+ by acrylodan conjugation compared with unconjugated E84C” value in data set [3] was determined as 7 fold. The “BW284c51 Kd ratio to wild type (head is formula MATH:3)” value with E81C and E84C AChEs [4] came out at 18. For the same molecule, the “Edrophonium Kd ratio to wild type (head is formula MATH:2)” value in the data set with E81C and E84C AChEs [5] was 2 and 2.2.

B2: A262C (protein, UniProt P21836 32-614, looked up, variant A262C)
Acetylcholinesterase: EGREDPQLLVRVRGGQLRGIRLKAPGGPVSAFLGIPFAEPPVGSRRFMPPEPKRPWSGVLDATTFQNVCYQYVDTLYPGFEGTEMWNPNRELSEDCLYLNVWTPYPRPASPTPVLIWIYGGGFYSGAASLDVYDGRFLAQVEGAVLVSMNYRVGTFGFLALPGSREAPGNVGLLDQRLALQWVQENIAAFGGDPMSVTLFGESAGAASVGMHILSLPSRSLFHRAVLQSGTPNGPWATVSAGEARRRATLLARLVGCPPGGCGGNDTELIACLRTRPAQDLVDHEWHVLPQESIFRFSFVPVVDGDFLSDTPEALINTGDFQDLQVLVGVVKDEGSYFLVYGVPGFSKDNESLISRAQFLAGVRIGVPQASDLAAEAVVLHYTDWLHPEDPTHLRDAMSAVVGDHNVVCPVAQLAGRLAAQGARVYAYIFEHRASTLTWPLWMGVPHGYEIEFIFGLPLDPSLNYTTEERIFAQRLMKYWTNFARTGDPNDPRDSKSPQWPPYTTAAQQYVSLNLKPLEVRRGLRAQTCAFWNRFLPKLLSATDTLDEAERQWKAEFHRWSSYMVHWKNQFDHYSKQERCSDL
As to B2, in data set [6], the Km is 59 ± 4 µM, the kcat was 1.6 ± 0.1 10^5/min, the b was 0.2 ± 0.04 and the KSS is given as 11 ± 3 mM.

B3: H287C (protein, UniProt P21836 32-614, looked up, variant H287C)
Acetylcholinesterase: EGREDPQLLVRVRGGQLRGIRLKAPGGPVSAFLGIPFAEPPVGSRRFMPPEPKRPWSGVLDATTFQNVCYQYVDTLYPGFEGTEMWNPNRELSEDCLYLNVWTPYPRPASPTPVLIWIYGGGFYSGAASLDVYDGRFLAQVEGAVLVSMNYRVGTFGFLALPGSREAPGNVGLLDQRLALQWVQENIAAFGGDPMSVTLFGESAGAASVGMHILSLPSRSLFHRAVLQSGTPNGPWATVSAGEARRRATLLARLVGCPPGGAGGNDTELIACLRTRPAQDLVDHEWCVLPQESIFRFSFVPVVDGDFLSDTPEALINTGDFQDLQVLVGVVKDEGSYFLVYGVPGFSKDNESLISRAQFLAGVRIGVPQASDLAAEAVVLHYTDWLHPEDPTHLRDAMSAVVGDHNVVCPVAQLAGRLAAQGARVYAYIFEHRASTLTWPLWMGVPHGYEIEFIFGLPLDPSLNYTTEERIFAQRLMKYWTNFARTGDPNDPRDSKSPQWPPYTTAAQQYVSLNLKPLEVRRGLRAQTCAFWNRFLPKLLSATDTLDEAERQWKAEFHRWSSYMVHWKNQFDHYSKQERCSDL
Take B3: in data set [6], the Km is 58 ± 7 µM, the kcat is 1.8 ± 0.2 10^5/min, the b is reported as 0.2 ± 0.06 and the KSS is 12 ± 6 mM.

B4: Wild Type (protein, UniProt P21836 32-614, looked up)
Acetylcholinesterase: EGREDPQLLVRVRGGQLRGIRLKAPGGPVSAFLGIPFAEPPVGSRRFMPPEPKRPWSGVLDATTFQNVCYQYVDTLYPGFEGTEMWNPNRELSEDCLYLNVWTPYPRPASPTPVLIWIYGGGFYSGAASLDVYDGRFLAQVEGAVLVSMNYRVGTFGFLALPGSREAPGNVGLLDQRLALQWVQENIAAFGGDPMSVTLFGESAGAASVGMHILSLPSRSLFHRAVLQSGTPNGPWATVSAGEARRRATLLARLVGCPPGGAGGNDTELIACLRTRPAQDLVDHEWHVLPQESIFRFSFVPVVDGDFLSDTPEALINTGDFQDLQVLVGVVKDEGSYFLVYGVPGFSKDNESLISRAQFLAGVRIGVPQASDLAAEAVVLHYTDWLHPEDPTHLRDAMSAVVGDHNVVCPVAQLAGRLAAQGARVYAYIFEHRASTLTWPLWMGVPHGYEIEFIFGLPLDPSLNYTTEERIFAQRLMKYWTNFARTGDPNDPRDSKSPQWPPYTTAAQQYVSLNLKPLEVRRGLRAQTCAFWNRFLPKLLSATDTLDEAERQWKAEFHRWSSYMVHWKNQFDHYSKQERCSDL
With B4, in the data set on mouse AChE, the “TFK+ kon” value is reported as 150 10^9M^−1min^−1. Besides, in data set [6], the Michaelis-Menten constant (Km) was 54 ± 16 µM, the kcat was 1.6 ± 0.4 10^5/min, the b was 0.2 ± 0.07 and the KSS is recorded as 14 ± 5 mM.
